According to patent US20050164323:

Tests used:
[1] = target: T1, RGRSRSAPPNL (SEQ ID NO: 29)
T1 chain: RGRSRSAPPNL

[2] = target: T2, AKIQASFRGHM (SEQ ID NO: 20)
T2 chain: AKIQASFRGHM

[3] = target: T3, QKKRVSMILQS (SEQ ID NO: 59)
T3 chain: QKKRVSMILQS

[4] = target: T4, ITRKRSGEAAV (SEQ ID NO: 40)
T4 chain: ITRKRSGEAAV

[5] = target: T5, Peptide 1 (FARKGSLRQ), substrate, pseudo-substrate PKC alpha
T5 chain: FARKGSLRQ

[6] = target: T6, APKRGSILSKP (SEQ ID NO: 35)
T6 chain: APKRGSILSKP

[7] = target: T7, RLRRLTAREAA (SEQ ID NO: 56)
T7 chain: RLRRLTAREAA

[8] = target: T8, KPFKLSGLSFK (SEQ ID NO: 43)
T8 chain: KPFKLSGLSFK

[9] = target: T9, Peptide 3 (LKRSLSEM), substrate, Serum Response Factor
T9 chain: LKRSLSEM

[10] = target: T10, … (SEQ ID NO: 54)
T10 chain: SYTRFSLARQV

[11] = target: T11, Peptide 4 (RTPKLARQASIELPSM), substrate, lymphocyte-specific protein 1
T11 chain: RTPKLARQASIELPSM

[12] = target: T12, AFRRTSLAGGG (SEQ ID NO: 44)
T12 chain: AFRRTSLAGGG

[13] = target: T13, QAWSKTTPRRI (SEQ ID NO: 31)
T13 chain: QAWSKTTPRRI

[14] = target: T14, TRSKGTLRYMS (SEQ ID NO: 38)
T14 chain: TRSKGTLRYMS

[15] = target: T15, ATFKKTFKHLL (SEQ ID NO: 24)
T15 chain: ATFKKTFKHLL

[16] = target: T16, FARKGSLRQKN (SEQ ID NO: 6)
T16 chain: FARKGSLRQKN

[17] = target: T17, MRRSKSPADSA (SEQ ID NO: 37)
T17 chain: MRRSKSPADSA

[18] = target: T18, GKRRPSRLVAL (SEQ ID NO: 58)
T18 chain: GKRRPSRLVAL

[19] = target: T19, NKRRATLPHPG (SEQ ID NO: 53)
T19 chain: NKRRATLPHPG

[20] = target: T20, RVVGGSLRGAQ (SEQ ID NO: 50)
T20 chain: RVVGGSLRGAQ

[21] = target: T21, SQKRPSQRHGS (SEQ ID NO: 42)
T21 chain: SQKRPSQRHGS

[22] = target: T22, LMRRNSVTPLA (SEQ ID NO: 39)
T22 chain: LMRRNSVTPLA

[23] = target: T23, KTRKISQSAQT (SEQ ID NO: 52)
T23 chain: KTRKISQSAQT

[24] = target: T24, ETKKQSFKQTG (SEQ ID NO: 33)
T24 chain: ETKKQSFKQTG

[25] = target: T25, LRQLRSPRRTQ (SEQ ID NO: 51)
T25 chain: LRQLRSPRRTQ

[26] = target: T26, PKRPGSVHRTP (SEQ ID NO: 23)
T26 chain: PKRPGSVHRTP

[27] = target: T27, EEPVLTLVDEA (SEQ ID NO: 41)
T27 chain: EEPVLTLVDEA

[28] = target: T28, MYRRSYVFQT (SEQ ID NO: 30)
T28 chain: MYRRSYVFQT

[29] = target: T29, ALGKRTAKYRW (SEQ ID NO: 45)
T29 chain: ALGKRTAKYRW

[30] = target: T30, LSRTLSVAAKK (SEQ ID NO: 19)
T30 chain: LSRTLSVAAKK

[31] = target: T31, SPLRHSFQKQQ (SEQ ID NO: 25)
T31 chain: SPLRHSFQKQQ

[32] = target: T32, NSRRPSRATWL (SEQ ID NO: 55)
T32 chain: NSRRPSRATWL

[33] = target: T33, KIQASFRGHMA (SEQ ID NO: 18)
T33 chain: KIQASFRGHMA

[34] = target: T34, VAKRESRGLKS (SEQ ID NO: 21)
T34 chain: VAKRESRGLKS

[35] = target: T35, … (SEQ ID NO: 16)
T35 chain: KKRFSFKKSFK

[36] = target: T36, KAFRDTFRLLL (SEQ ID NO: 22)
T36 chain: KAFRDTFRLLL

[37] = target: T37, QKRPSQRSKYL (SEQ ID NO: 17)
T37 chain: QKRPSQRSKYL

[38] = target: T38, DIKRLTPRFTL (SEQ ID NO: 34)
T38 chain: DIKRLTPRFTL

[39] = target: T39, IYRASYYRKGG (SEQ ID NO: 27)
T39 chain: IYRASYYRKGG

[40] = target: T40, VVRTDSLKGRR (SEQ ID NO: 46)
T40 chain: VVRTDSLKGRR

[41] = target: T41, GTFRSSIRRLS (SEQ ID NO: 49)
T41 chain: GTFRSSIRRLS

[42] = target: T42, NKRRGSVPILR (SEQ ID NO: 57)
T42 chain: NKRRGSVPILR

[43] = target: T43, WPWQVSLRTRF (SEQ ID NO: 48)
T43 chain: WPWQVSLRTRF

[44] = target: T44, KRRQISIRGIV (SEQ ID NO: 47)
T44 chain: KRRQISIRGIV

[45] = target: T45, RGFLRSASLGR (SEQ ID NO: 32)
T45 chain: RGFLRSASLGR

[46] = target: T46, MYHNSSQKRH (SEQ ID NO: 36)
T46 chain: MYHNSSQKRH

[47] = target: T47, KTRRLSAFQQG (SEQ ID NO: 28)
T47 chain: KTRRLSAFQQG

[48] = target: T48, KFRTPSFLKKS (SEQ ID NO: 26)
T48 chain: KFRTPSFLKKS

B1: PKC-θ kinase domain (PKC-θ KD; amino acid residues 362 to 706), C-terminal hexa-histidine tag, expressed in E. coli (protein)
chain: MGPELNKERPSLQIKLKIEDFILHKMLGKGSFGKVFLAEFKKTNQFFAIKALKKDVVLMDDDVECTMVEKRVLSLAWEHPFLTHMFCTFQTKENLFFVMEYLNGGDLMYHIQSCHKFDLSRATFYAAEIILGLQFLHSKGIVYRDLKLDNILLDKDGHIKIADFGMCKENMLGDAKTNTFCGTPDYIAPEILLGQKYNHSVDWWSFGVLLYEMLIGQSPFHGQDEEELFHSIRMDNPFYPRWLEKEAKDLLVKLFVREPEKRLGVRGDIRQHPLFREINWEELERKEIDPPFRPKVKSPFDCSNFDKEFLNEKPRLSFADRALINSMDQNMFRNFSFMNPGMERLISHHHHHH
phosphorylation of the peptide spot (32P, peptide array) [1]: shown to be substrates for PKC-θ
phosphorylation of the peptide spot (32P, peptide array) [2]: shown to be substrates for PKC-θ
phosphorylation of the peptide spot (32P, peptide array) [3]: shown to be substrates for PKC-θ
phosphorylation of the peptide spot (32P, peptide array) [4]: shown to be substrates for PKC-θ
(kcat/Km)^η, slope of the solvent microviscosity effect, 250 mM NaCl [5]: the slope had a (kcat/Km)^η value of 0.86 in 250 mM NaCl
kcat/Km [5]: 2.7e+06 M⁻¹ s⁻¹
phosphorylation of the peptide spot (32P, peptide array) [6]: shown to be substrates for PKC-θ
phosphorylation of the peptide spot (32P, peptide array) [7]: shown to be substrates for PKC-θ
phosphorylation of the peptide spot (32P, peptide array) [8]: shown to be substrates for PKC-θ
kcat [9]: 21 s⁻¹
kcat/Km [9]: 51000 M⁻¹ s⁻¹
phosphorylation of the peptide spot (32P, peptide array) [10]: shown to be substrates for PKC-θ
kcat [11]: 14 s⁻¹
kcat/Km [11]: 58000 M⁻¹ s⁻¹
phosphorylation of the peptide spot (32P, peptide array) [12]: shown to be substrates for PKC-θ
phosphorylation of the peptide spot (32P, peptide array) [13]: shown to be substrates for PKC-θ
phosphorylation of the peptide spot (32P, peptide array) [14]: shown to be substrates for PKC-θ
phosphorylation of the peptide spot (32P, peptide array) [15]: shown to be substrates for PKC-θ
phosphorylation of the peptide spot (32P, peptide array) [16]: shown to be substrates for PKC-θ
phosphorylation of the peptide spot (32P, peptide array) [17]: shown to be substrates for PKC-θ
phosphorylation of the peptide spot (32P, peptide array) [18]: shown to be substrates for PKC-θ
phosphorylation of the peptide spot (32P, peptide array) [19]: shown to be substrates for PKC-θ
phosphorylation of the peptide spot (32P, peptide array) [20]: shown to be substrates for PKC-θ
phosphorylation of the peptide spot (32P, peptide array) [21]: shown to be substrates for PKC-θ
phosphorylation of the peptide spot (32P, peptide array) [22]: shown to be substrates for PKC-θ
phosphorylation of the peptide spot (32P, peptide array) [23]: shown to be substrates for PKC-θ
phosphorylation of the peptide spot (32P, peptide array) [24]: shown to be substrates for PKC-θ
phosphorylation of the peptide spot (32P, peptide array) [25]: shown to be substrates for PKC-θ
phosphorylation of the peptide spot (32P, peptide array) [26]: shown to be substrates for PKC-θ
phosphorylation of the peptide spot (32P, peptide array) [27]: shown to be substrates for PKC-θ
phosphorylation of the peptide spot (32P, peptide array) [28]: shown to be substrates for PKC-θ
phosphorylation of the peptide spot (32P, peptide array) [29]: shown to be substrates for PKC-θ
phosphorylation of the peptide spot (32P, peptide array) [30]: shown to be substrates for PKC-θ
phosphorylation of the peptide spot (32P, peptide array) [31]: shown to be substrates for PKC-θ
phosphorylation of the peptide spot (32P, peptide array) [32]: shown to be substrates for PKC-θ
phosphorylation of the peptide spot (32P, peptide array) [33]: shown to be substrates for PKC-θ
phosphorylation of the peptide spot (32P, peptide array) [34]: shown to be substrates for PKC-θ
phosphorylation of the peptide spot (32P, peptide array) [35]: shown to be substrates for PKC-θ
phosphorylation of the peptide spot (32P, peptide array) [36]: shown to be substrates for PKC-θ
phosphorylation of the peptide spot (32P, peptide array) [37]: shown to be substrates for PKC-θ
phosphorylation of the peptide spot (32P, peptide array) [38]: shown to be substrates for PKC-θ
phosphorylation of the peptide spot (32P, peptide array) [39]: shown to be substrates for PKC-θ
phosphorylation of the peptide spot (32P, peptide array) [40]: shown to be substrates for PKC-θ
phosphorylation of the peptide spot (32P, peptide array) [41]: shown to be substrates for PKC-θ
phosphorylation of the peptide spot (32P, peptide array) [42]: shown to be substrates for PKC-θ
phosphorylation of the peptide spot (32P, peptide array) [43]: shown to be substrates for PKC-θ
phosphorylation of the peptide spot (32P, peptide array) [44]: shown to be substrates for PKC-θ
phosphorylation of the peptide spot (32P, peptide array) [45]: shown to be substrates for PKC-θ
phosphorylation of the peptide spot (32P, peptide array) [46]: shown to be substrates for PKC-θ
phosphorylation of the peptide spot (32P, peptide array) [47]: shown to be substrates for PKC-θ
phosphorylation of the peptide spot (32P, peptide array) [48]: shown to be substrates for PKC-θ
